The values below come from patent US20210285971.

The target in series [1] is synthetic Aβ40 peptide, P05067.
Series [2] deals with synthetic Aβ42 peptide, P05067.
Sequence of synthetic Aβ42 peptide, P05067 (P05067 whole entry, looked up, tested part not stated): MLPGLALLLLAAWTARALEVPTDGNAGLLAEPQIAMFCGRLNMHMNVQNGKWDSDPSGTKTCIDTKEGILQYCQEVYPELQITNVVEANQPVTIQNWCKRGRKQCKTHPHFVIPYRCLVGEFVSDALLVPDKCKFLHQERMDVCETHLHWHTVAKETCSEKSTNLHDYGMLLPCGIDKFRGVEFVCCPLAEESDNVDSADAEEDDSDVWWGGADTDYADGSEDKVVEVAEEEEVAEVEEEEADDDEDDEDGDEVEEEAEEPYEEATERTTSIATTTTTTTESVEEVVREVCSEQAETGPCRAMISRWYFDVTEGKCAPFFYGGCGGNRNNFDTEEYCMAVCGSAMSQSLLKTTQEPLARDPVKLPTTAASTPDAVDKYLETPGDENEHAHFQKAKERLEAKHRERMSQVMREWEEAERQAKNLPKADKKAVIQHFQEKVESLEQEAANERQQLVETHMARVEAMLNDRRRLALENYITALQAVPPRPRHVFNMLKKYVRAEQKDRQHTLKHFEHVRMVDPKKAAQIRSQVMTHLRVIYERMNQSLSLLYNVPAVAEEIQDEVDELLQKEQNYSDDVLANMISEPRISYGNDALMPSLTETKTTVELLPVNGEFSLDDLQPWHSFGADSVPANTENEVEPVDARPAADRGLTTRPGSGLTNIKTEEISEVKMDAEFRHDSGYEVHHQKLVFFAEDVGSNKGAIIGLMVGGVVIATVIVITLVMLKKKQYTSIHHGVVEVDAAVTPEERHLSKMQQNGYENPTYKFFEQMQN

Sequence of synthetic Aβ40 peptide, P05067 (P05067 whole entry, looked up, tested part not stated): as above

B1: BACE1 from Fc purification (protein)
chain: ETDEEPEEPGRRGSFVEMVDNLRGKSGQGYYVEMTVGSPPQTLNILVDTGSSNFAVGAAPHPFLHRYYQRQLSSTYRDLRKGVYVPYTQGKWEGELGTDLVSIPHGPNVTVRANIAAITESDKFFINGSNWEGILGLAYAEIARPDDSLEPFFDSLVKQTHVPNLFSLQLCGAGFPLNQSEVLASVGGSMIIGGIDHSLYTGSLWYTPIRREWYYEVIIVRVEINGQDLKMDCKEYNYDKSIVDSGTTNLRLPKKVFEAAVKSIKAASSTEKFPDGFWLGEQLVCWQAGTTPWNIFPVISLYLMGEVTNQSFRITILPQQYLRPVEDVATSQDDCYKFAISQSSTGTVMGAVIMEGFYVVFDRARKRIGFAVSACHVHDEFRTAAVEGPFVTLDMEDCGYNIPQTDESTLMTIAY
As to B1, the “cleavage in vitro analyzed by MALDI-MS” value in series [1] is “cleavage of Aβ40 and Aβ42 by BACE1 in vitro”; in series [2], “cleavage of Aβ40 and Aβ42 by BACE1 in vitro”.
